Patent US20130115589A1, “Pharmaceutical Composition for Treatment and Prevention of Herpes Virus Infections” (THE UNIVERSITY OF TOKYO, priority 2010, published 2013)

Biological target: gB of HSV-1 (Human herpesvirus 1, UniProt P06436)
Details: 293T cells

B1: NMHC-IIBrod-Ig: fusion protein of Ig and the C-terminal fragment of NMHC-IIB, soluble form of NMHC-IIB (protein)
chain: FAQSKESEKKLKSLEAEILQLQEELASSERARRHAEQERDELADEITNSASGKSALLDEKRRLEARIAQLEEELEEEQSNMELLNDRFRKTTLQVDTLNAELAAERSAAQKSDNARQQLERQNKELKAKLQELEGAVKSKFKATISALEAKIGQLEEQLEQEAKERAAANKLVRRTEKKLKEIFMQVEDERRHADQYKEQMEKANARMKQLKRQLEEAEEEATRANASRRKLQRELDDATEANEGLSREVSTLKNRLRRGGPISFSSSRSGRRQLHLEGASLELSDDDTESKTSDVNETQPPQSE
modifications: left off: a dimerising Fc or GST; small tags and cut ends
  staining of cells expressing gB on their surface: stained
